Source: publication PMC10786891, “Massively parallel profiling of RNA-targeting CRISPR-Cas13d”

T1: EsCas13d, nuclease-dead (Eubacterium siraeum, UniProt B0MS50, R295A;H300A;R849A;H854A)
T1 sequence: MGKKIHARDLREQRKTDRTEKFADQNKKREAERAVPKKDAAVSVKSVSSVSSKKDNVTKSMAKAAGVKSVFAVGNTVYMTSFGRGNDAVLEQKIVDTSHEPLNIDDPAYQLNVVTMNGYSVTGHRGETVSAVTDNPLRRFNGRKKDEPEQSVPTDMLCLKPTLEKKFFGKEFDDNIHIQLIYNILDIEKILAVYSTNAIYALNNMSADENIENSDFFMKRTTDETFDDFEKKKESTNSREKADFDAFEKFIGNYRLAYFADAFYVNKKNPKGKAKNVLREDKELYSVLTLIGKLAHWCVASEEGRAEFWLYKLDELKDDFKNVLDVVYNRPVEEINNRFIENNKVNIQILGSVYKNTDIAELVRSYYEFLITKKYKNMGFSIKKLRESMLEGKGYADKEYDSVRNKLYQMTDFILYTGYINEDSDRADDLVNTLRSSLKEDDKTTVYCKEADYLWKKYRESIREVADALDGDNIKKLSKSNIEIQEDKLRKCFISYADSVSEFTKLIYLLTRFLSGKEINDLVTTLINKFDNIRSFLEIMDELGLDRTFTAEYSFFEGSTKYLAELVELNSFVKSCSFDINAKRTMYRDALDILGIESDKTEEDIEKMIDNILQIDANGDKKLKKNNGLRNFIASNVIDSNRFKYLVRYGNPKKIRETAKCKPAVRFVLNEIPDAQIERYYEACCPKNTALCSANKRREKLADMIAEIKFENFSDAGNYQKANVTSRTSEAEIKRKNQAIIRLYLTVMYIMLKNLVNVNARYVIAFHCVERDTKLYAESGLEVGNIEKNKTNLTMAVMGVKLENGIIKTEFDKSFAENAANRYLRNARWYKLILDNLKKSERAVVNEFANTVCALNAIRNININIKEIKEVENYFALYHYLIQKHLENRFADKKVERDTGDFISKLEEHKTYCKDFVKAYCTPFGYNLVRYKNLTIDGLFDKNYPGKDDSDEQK


Target: T1, EsCas13d, nuclease-dead
Test: crRNA (strand 1, pre-loaded); Mg2+; 40 mM Tris-HCl pH 7.5, 150 mM NaCl, 6 mM MgCl2, 1 mM DTT, 0.1% Tween-20, 0.2 mg/ml BSA; 25 C; 10 min per concentration, then washed
Settings: tags: His6-TwinStrep-SUMO cleaved; N-terminal SNAP kept (SNAP-Surface 488); label: 3' end held by stalled T7 RNA polymerase

Binder | Kd
target 1 insG 3' of 16,insA 3' of 15 (mixed) RNA 1: CACCCGUGCAAAAAUGCAGGGGUCUAAAACUGAGCGGAUAACCUCUCUAUGG RNA 2: GGGAAUGGAUCCACAUCUACGAAUUCGUACCAUAGAGGAAGGUUAUCCGCUCACCGAGAUCGGAAGAGCACACGU | 17.5 ± 0.9 nM
target 1 A20C,C21G (mixed) RNA 1: CACCCGUGCAAAAAUGCAGGGGUCUAAAACUGAGCGGAUAACCUCUCUAUGG RNA 2: GGGAAUGGAUCCACAUCUACGAAUUCGUACGCUAGAGAGGUUAUCCGCUCACCGAGAUCGGAAGAGCACACGU | 57 ± 26 nM
target 1 A9C,A16G (mixed) RNA 1: CACCCGUGCAAAAAUGCAGGGGUCUAAAACUGAGCGGAUAACCUCUCUAUGG RNA 2: GGGAAUGGAUCCACAUCUACGAAUUCGUACCAUAGGGAGGUUCUCCGCUCACCGAGAUCGGAAGAGCACACGU | 68 ± 27 nM
target 1 C2U,U8C (mixed) RNA 1: CACCCGUGCAAAAAUGCAGGGGUCUAAAACUGAGCGGAUAACCUCUCUAUGG RNA 2: GGGAAUGGAUCCACAUCUACGAAUUCGUACCAUAGAGAGGUUACCCGCUUACCGAGAUCGGAAGAGCACACGU | 10.1 ± 0.8 nM
target 1 insC 3' of 19,insC 3' of 19 (mixed) RNA 1: CACCCGUGCAAAAAUGCAGGGGUCUAAAACUGAGCGGAUAACCUCUCUAUGG RNA 2: GGGAAUGGAUCCACAUCUACGAAUUCGUACCAUCCAGAGAGGUUAUCCGCUCACCGAGAUCGGAAGAGCACACGU | 29.2 ± 3.5 nM
target 1 insG 3' of 18,insG 3' of 8 (mixed) RNA 1: CACCCGUGCAAAAAUGCAGGGGUCUAAAACUGAGCGGAUAACCUCUCUAUGG RNA 2: GGGAAUGGAUCCACAUCUACGAAUUCGUACCAUAGGAGAGGUUAUGCCGCUCACCGAGAUCGGAAGAGCACACGU | 50 ± 4 nM
target 1 insA 3' of 22,insA 3' of 7 (mixed) RNA 1: CACCCGUGCAAAAAUGCAGGGGUCUAAAACUGAGCGGAUAACCUCUCUAUGG RNA 2: GGGAAUGGAUCCACAUCUACGAAUUCGUACACAUAGAGAGGUUAUCACGCUCACCGAGAUCGGAAGAGCACACGU | 8 ± 0.6 nM
target 1 insU 3' of 20,insU 3' of 12 (mixed) RNA 1: CACCCGUGCAAAAAUGCAGGGGUCUAAAACUGAGCGGAUAACCUCUCUAUGG RNA 2: GGGAAUGGAUCCACAUCUACGAAUUCGUACCAUUAGAGAGGUUUAUCCGCUCACCGAGAUCGGAAGAGCACACGU | 11.5 ± 0.7 nM
target 1 A9G,U19G (mixed) RNA 1: CACCCGUGCAAAAAUGCAGGGGUCUAAAACUGAGCGGAUAACCUCUCUAUGG RNA 2: GGGAAUGGAUCCACAUCUACGAAUUCGUACCAGAGAGAGGUUGUCCGCUCACCGAGAUCGGAAGAGCACACGU | 49 ± 14 nM
target 1 insG 3' of 10,insC 3' of 5 (mixed) RNA 1: CACCCGUGCAAAAAUGCAGGGGUCUAAAACUGAGCGGAUAACCUCUCUAUGG RNA 2: GGGAAUGGAUCCACAUCUACGAAUUCGUACCAUAGAGAGGUUGAUCCGCCUCACCGAGAUCGGAAGAGCACACGU | 46 ± 8 nM
target 1 U10G,U19G (mixed) RNA 1: CACCCGUGCAAAAAUGCAGGGGUCUAAAACUGAGCGGAUAACCUCUCUAUGG RNA 2: GGGAAUGGAUCCACAUCUACGAAUUCGUACCAGAGAGAGGUGAUCCGCUCACCGAGAUCGGAAGAGCACACGU | 90 ± 40 nM
target 1 C6A,C21A (mixed) RNA 1: CACCCGUGCAAAAAUGCAGGGGUCUAAAACUGAGCGGAUAACCUCUCUAUGG RNA 2: GGGAAUGGAUCCACAUCUACGAAUUCGUACAAUAGAGAGGUUAUCAGCUCACCGAGAUCGGAAGAGCACACGU | 23.5 ± 1.7 nM
target 1 C2A,A20C (mixed) RNA 1: CACCCGUGCAAAAAUGCAGGGGUCUAAAACUGAGCGGAUAACCUCUCUAUGG RNA 2: GGGAAUGGAUCCACAUCUACGAAUUCGUACCCUAGAGAGGUUAUCCGCUAACCGAGAUCGGAAGAGCACACGU | 36 ± 4 nM
target 1 C6G,A20C (mixed) RNA 1: CACCCGUGCAAAAAUGCAGGGGUCUAAAACUGAGCGGAUAACCUCUCUAUGG RNA 2: GGGAAUGGAUCCACAUCUACGAAUUCGUACCCUAGAGAGGUUAUCGGCUCACCGAGAUCGGAAGAGCACACGU | 36 ± 6 nM
target 1 U8C,A16U (mixed) RNA 1: CACCCGUGCAAAAAUGCAGGGGUCUAAAACUGAGCGGAUAACCUCUCUAUGG RNA 2: GGGAAUGGAUCCACAUCUACGAAUUCGUACCAUAGUGAGGUUACCCGCUCACCGAGAUCGGAAGAGCACACGU | 59 ± 8 nM
target 1 insA 3' of 15,insA 3' of 12 (mixed) RNA 1: CACCCGUGCAAAAAUGCAGGGGUCUAAAACUGAGCGGAUAACCUCUCUAUGG RNA 2: GGGAAUGGAUCCACAUCUACGAAUUCGUACCAUAGAGAAGGAUUAUCCGCUCACCGAGAUCGGAAGAGCACACGU | 42 ± 5 nM
target 1 insC 3' of 19,insG 3' of 18 (mixed) RNA 1: CACCCGUGCAAAAAUGCAGGGGUCUAAAACUGAGCGGAUAACCUCUCUAUGG RNA 2: GGGAAUGGAUCCACAUCUACGAAUUCGUACCAUCAGGAGAGGUUAUCCGCUCACCGAGAUCGGAAGAGCACACGU | 89 ± 19 nM
target 1 G17C,C21U (mixed) RNA 1: CACCCGUGCAAAAAUGCAGGGGUCUAAAACUGAGCGGAUAACCUCUCUAUGG RNA 2: GGGAAUGGAUCCACAUCUACGAAUUCGUACUAUACAGAGGUUAUCCGCUCACCGAGAUCGGAAGAGCACACGU | 7.6 ± 0.7 nM
target 1 U3G,U19C (mixed) RNA 1: CACCCGUGCAAAAAUGCAGGGGUCUAAAACUGAGCGGAUAACCUCUCUAUGG RNA 2: GGGAAUGGAUCCACAUCUACGAAUUCGUACCACAGAGAGGUUAUCCGCGCACCGAGAUCGGAAGAGCACACGU | 25.1 ± 3.4 nM
target 1 insU 3' of 7,insG 3' of 7 (mixed) RNA 1: CACCCGUGCAAAAAUGCAGGGGUCUAAAACUGAGCGGAUAACCUCUCUAUGG RNA 2: GGGAAUGGAUCCACAUCUACGAAUUCGUACCAUAGAGAGGUUAUCUGCGCUCACCGAGAUCGGAAGAGCACACGU | 9.1 ± 0.6 nM
target 1 insA 3' of 11,insA 3' of 8 (mixed) RNA 1: CACCCGUGCAAAAAUGCAGGGGUCUAAAACUGAGCGGAUAACCUCUCUAUGG RNA 2: GGGAAUGGAUCCACAUCUACGAAUUCGUACCAUAGAGAGGUAUAUACCGCUCACCGAGAUCGGAAGAGCACACGU | 39.7 ± 3.3 nM
target 1 insG 3' of 20,insC 3' of 19 (mixed) RNA 1: CACCCGUGCAAAAAUGCAGGGGUCUAAAACUGAGCGGAUAACCUCUCUAUGG RNA 2: GGGAAUGGAUCCACAUCUACGAAUUCGUACCAGUCAGAGAGGUUAUCCGCUCACCGAGAUCGGAAGAGCACACGU | 59 ± 10 nM
target 1 insC 3' of 16,insC 3' of 15 (mixed) RNA 1: CACCCGUGCAAAAAUGCAGGGGUCUAAAACUGAGCGGAUAACCUCUCUAUGG RNA 2: GGGAAUGGAUCCACAUCUACGAAUUCGUACCAUAGACGCAGGUUAUCCGCUCACCGAGAUCGGAAGAGCACACGU | 84 ± 27 nM
target 1 insA 3' of 15,insU 3' of 14 (mixed) RNA 1: CACCCGUGCAAAAAUGCAGGGGUCUAAAACUGAGCGGAUAACCUCUCUAUGG RNA 2: GGGAAUGGAUCCACAUCUACGAAUUCGUACCAUAGAGAAUGGUUAUCCGCUCACCGAGAUCGGAAGAGCACACGU | 21.1 ± 1.8 nM
target 1 del3,del15 (mixed) RNA 1: CACCCGUGCAAAAAUGCAGGGGUCUAAAACUGAGCGGAUAACCUCUCUAUGG RNA 2: GGGAAUGGAUCCACAUCUACGAAUUCGUACCAUAGAAGGUUAUCCGCCACCGAGAUCGGAAGAGCACACGU | 30.2 ± 3.3 nM
target 1 U10A,G12A (mixed) RNA 1: CACCCGUGCAAAAAUGCAGGGGUCUAAAACUGAGCGGAUAACCUCUCUAUGG RNA 2: GGGAAUGGAUCCACAUCUACGAAUUCGUACCAUAGAGAGAUAAUCCGCUCACCGAGAUCGGAAGAGCACACGU | 5.86 ± 0.25 nM
target 1 insA 3' of 12,insG 3' of 11 (mixed) RNA 1: CACCCGUGCAAAAAUGCAGGGGUCUAAAACUGAGCGGAUAACCUCUCUAUGG RNA 2: GGGAAUGGAUCCACAUCUACGAAUUCGUACCAUAGAGAGGAUGUAUCCGCUCACCGAGAUCGGAAGAGCACACGU | 49 ± 6 nM
target 1 insC 3' of 5,insA 3' of 5 (mixed) RNA 1: CACCCGUGCAAAAAUGCAGGGGUCUAAAACUGAGCGGAUAACCUCUCUAUGG RNA 2: GGGAAUGGAUCCACAUCUACGAAUUCGUACCAUAGAGAGGUUAUCCGCACUCACCGAGAUCGGAAGAGCACACGU | 11.5 ± 0.5 nM
